Data set [1] deals with CC(=O)N[C@H]1[C@H]([C@H](O)[C@H](O)CO)OC(O)(C(=O)O)C[C@@H]1O. Description: purified protein. The following applies: Mg2+ active site; binds after CTP.
Data set [2] has as its system Nc1ccn([C@@H]2O[C@H](COP(=O)(O)OP(=O)(O)OP(=O)(O)O)[C@@H](O)[C@H]2O)c(=O)n1. The data set is described as follows: purified protein. The following applies: Mg2+ CTP binds prior to Neu5Ac.

On to “NmB CMP-sialic acid synthetase (CSS) (Neisseria meningitidis MC58)”, for which the Michaelis constant (Km) (as a rule, the substrate concentration at which the rate is half of its maximum) in data set [1] is given as 37 µM; in data set [2], 22 µM.

These data come from article PMC12654856, “Exploring the Scope of Functionalized N-Acylneuraminic Acid β-Methyl Glycosides as Inhibitors of Neisseria meningitidis CMP-Sialic Acid Synthetase” (Molecules, 2025).
